Entries after “also recorded” stand apart in the source; their conditions may differ.
Legend:
NRP1 = biological target: T1, NRP1 (Homo sapiens, UniProt O14786); test: Bio-layer interferometry (BLI) of CTR-RELN-NRP-1 interactions; type: binding; conditions: immobilized biotinylated NRP1
T1 construct: purchased R&D 3870-N1-025
T1 sequence (O14786 22-644 isoform O14786-2 limits assumed): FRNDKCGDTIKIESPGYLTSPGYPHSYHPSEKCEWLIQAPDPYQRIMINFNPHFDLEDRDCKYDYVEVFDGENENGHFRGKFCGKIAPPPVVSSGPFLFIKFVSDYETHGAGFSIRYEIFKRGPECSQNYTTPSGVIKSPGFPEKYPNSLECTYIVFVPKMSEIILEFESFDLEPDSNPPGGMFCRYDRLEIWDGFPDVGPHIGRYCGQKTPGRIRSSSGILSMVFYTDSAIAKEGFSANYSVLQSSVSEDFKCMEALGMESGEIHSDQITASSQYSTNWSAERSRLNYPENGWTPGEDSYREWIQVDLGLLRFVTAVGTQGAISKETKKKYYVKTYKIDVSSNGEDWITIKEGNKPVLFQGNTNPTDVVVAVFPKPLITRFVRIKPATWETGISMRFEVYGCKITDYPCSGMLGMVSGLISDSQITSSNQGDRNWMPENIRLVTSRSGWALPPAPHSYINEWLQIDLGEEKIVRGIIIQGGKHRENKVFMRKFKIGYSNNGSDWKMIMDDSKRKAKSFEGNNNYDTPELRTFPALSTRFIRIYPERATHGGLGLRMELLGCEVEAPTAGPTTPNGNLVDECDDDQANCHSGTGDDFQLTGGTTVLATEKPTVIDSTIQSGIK
Description: (§1) Bio-layer interferometry (BLI) was additionally used to assess NRP1-protein kinetics at 30° C. and 1000 rpm agitation. 1 mg/mL NRP1 (R&D 3870-N1-025) was biotinylated at a 1:2 molar ratio, desalted, and immobilized on the SA biosensor tip (Pall ForteBio) surface. This was followed by 1) 180 seconds baseline buffer diluent, 2) loading of the ligand (NRP1), 3) 180 seconds baseline buffer diluent, 4) 240 seconds association (analyte), and 5) 300 seconds disassociation in assay buffer. Assay buffer: SD Buffer (pH7.4 PBS, 0.05% tween20, 0.01% BSA).
The experimental data were fit with the 1:1 binding model and analyzed with global fitting using Octet Data Analysis software to calculate KD.
as §1, with “was” for “was additionally”, “agitation using previously published methods.” for “agitation.”

SH-SY5Y cells = test: Lactate dehydrogenase assay in SH-SY5Y cells treated with oligomeric Tau; type: cell-based
Description: A lactate dehydrogenase assay was performed in SH-SY5Y cells treated 24 h with pre-formed oligomeric Tau (oTau) either alone or in the presence of C-term RELN WT (184I). The lactate dehydrogenase assay was performed as follows. 100 k neuroblastoma (SH-SY5Y, ATCC) cells/well were plated in 96-well TC treated plates in growth media (DMEM/F12, Gibco, 10% heat-inactivated FBS, R&D, 200 ug normocin) and allowed to attach and grow overnight. Next day, test compounds were allowed to thaw on wet ice. Phenol-free and serum free DMEM/F12 no serum no antibiotic media was warmed and a 50 mL aliquot was sterile filtered (0.22 um) as test media. In TC cabinet, thawed test compounds were mixed via pipetting then added to final concentration for each test condition in filtered test media and mixed through pipetting. Test conditions were allowed to pre-incubate for 15 mins at RT in TC cabinet. Wells were gently aspirated and gently washed with 200 uL prewarmed Test media, then gently aspirated and 100 μL of test conditions were added and allowed to incubate in TC incubator at 5% CO2 for 21 hrs. LDH performed using Roche kit according to manufacturer's protocol.

- ka (NRP1): 9400 M⁻¹ s⁻¹
- kd (NRP1): 0.00573 s⁻¹
B1: pfcn-huIgG2-C-termH3447WT (protein)
chain: MYRMQLLSCIALSLALVTNSAPLERKSSVECPPCPAPPVAGPSVFLFPPKPKDTLMISRTPEVTCVVVDVSHEDPEVQFNWYVDGVEVHNAKTKPREEQFNSTFRVVSVLTVVHQDWLNGKEYKCKVSNKGLPAPIEKTISKTKGQPREPQVYTLPPSREEMTKNQVSLTCLVKGFYPSDIAVEWESNGQPENNYKTTPPMLDSDGSFFLYSKLTVDKSRWQQGNVFSCSVMHEALHNHYTQKSLSLSPGARTSTRKQNYMMNFSRQHGLRHFYNRRRRSLRRYP
- cytotoxicity of construct (LDH) (SH-SY5Y cells): did not show any cytotoxicity
- oligomeric Tau-induced cytotoxicity (LDH) (SH-SY5Y cells; oTau with construct): reduction of oTau-derived cytotoxicity; also recorded: Reduced oligomeric Tau-induced cytotoxicity

From US20260139017A1, “COMPOSITIONS AND METHODS USING REELIN IN ALZHEIMER'S DISEASE” (The General Hospital Corporation, priority 2022, published 2026)
